# Test results as given in paper PMC4425550 (Nature medicine, 2015).
# Where no end group is shown, it is not given here. The star is where a group is joined. Biotin = O=C1N[C@H]2[C@H](CS[C@H]2CCCCC(=O)*)N1
# T1: recombinant CDH15-Fc (UniProt P55291 61-606)
# T1 sequence (looked up): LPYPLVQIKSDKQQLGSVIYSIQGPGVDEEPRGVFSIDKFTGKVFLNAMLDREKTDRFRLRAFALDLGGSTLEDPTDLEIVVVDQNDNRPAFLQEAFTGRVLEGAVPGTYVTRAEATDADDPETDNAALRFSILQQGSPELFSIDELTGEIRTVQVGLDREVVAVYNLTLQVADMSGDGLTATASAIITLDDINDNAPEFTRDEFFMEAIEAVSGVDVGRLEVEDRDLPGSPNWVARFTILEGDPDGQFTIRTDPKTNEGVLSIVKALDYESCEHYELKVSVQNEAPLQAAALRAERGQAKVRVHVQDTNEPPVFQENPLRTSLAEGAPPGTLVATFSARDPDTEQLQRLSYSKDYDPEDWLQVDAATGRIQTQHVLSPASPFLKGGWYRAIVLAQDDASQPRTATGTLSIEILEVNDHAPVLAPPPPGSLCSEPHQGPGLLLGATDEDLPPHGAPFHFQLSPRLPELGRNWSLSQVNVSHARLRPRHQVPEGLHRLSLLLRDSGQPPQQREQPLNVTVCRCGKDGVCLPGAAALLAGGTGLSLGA
# Legend:
# SPHK1/2 = assay: T cell transmigration with SPHK1/2 inhibitor; format: cell-based, human; conditions: 5 μM on endothelial cells, 30 min 37°C, washed, n=3
# [1] = tested on: S1P receptor on T cells; stimulated endothelial cells; assay: T cell transmigration with exogenous S1P, B cell depleted PBL; format: cell-based, human
# [2] = tested on: S1PR1 on memory T cells (CD3+CD45RO+); assay: S1PR1 surface expression on memory T cells on ICAM-1; format: cell-based, human
# αLβ2 (LFA-1) = assay: LFA-1 activation epitope; format: cell-based, human; conditions: S1P 10 µM after CXCL10 80 ng/ml, n=4
# SPHK1 = assay: T cell transmigration with SPHK1 specific inhibitor; format: cell-based, human; conditions: 5 μM on endothelial cells, 30 min 37°C, washed, n=3
# S1P receptor = assay: T cell transmigration with S1P receptor antagonist; format: cell-based, human; conditions: W146 10 μM, 30 min, washed; n=3–7
# [3] = tested on: TNF-α&IFN-γ treated HUVEC; assay: PBL trans-endothelial migration, static, HUVEC; format: cell-based, human
# B cells = conditions: T1D and rheumatoid arthritis; cited from earlier work
# recombinant CDH15-Fc = target: T1, recombinant CDH15-Fc; assay: SPR
# HDMEC = assay: PBL transmigration across HDMEC, static; format: cell-based, human; conditions: TNF-α&IFN-γ stimulated HDMEC, n=3–4
# [4] = tested on: TNF-α&IFN-γ treated HUVEC; assay: PBL trans-endothelial migration under flow; conditions: adiponectin pre-treated PBL, n=6
# [5] = tested on: lymphocytes from individuals with T1D; endothelial cells; assay: Ex vivo T cell transmigration, individuals with type-1-diabetes; conditions: adiponectin 15 μg/ml or PEPITEM 10 ng/ml, n=9–22
# [6] = tested on: TNF-α&IFN-γ stimulated endothelial cells; assay: PBL adhesion; format: cell-based, human; conditions: adiponectin or PEPITEM
# [7] = tested on: α4β1, αLβ2, CXCR3, DP-2 on PBL; assay: Expression/function of integrins, CXCR3 and DP-2 on PBL, flow cytometry; format: cell-based, human; conditions: adiponectin 15 μg/ml, n=3
# [8] = tested on: TNF-α&IFN-γ stimulated HUVEC; assay: Gene expression of adhesion molecules and chemokines in HUVEC, real-time PCR; format: cell-based, human; conditions: TNF-α and IFN-γ stimulated endothelial cells
# [9] = tested on: endothelial cells (TNF-α and IFN-γ stimulated); format: cell-based, human
# [10] = tested on: lymphocytes from individuals with rheumatoid arthritis; endothelial cells; assay: Ex vivo T cell transmigration, individuals with rheumatoid arthritis; format: cell-based, human; conditions: adiponectin 15 μg/ml or PEPITEM 10 ng/ml, n=7–8
molecule,measurement,setting,value
"CCCCCCCCCCCCC/C=C/[C@@H](O)[C@H](CO)N(C)C [N,N-Dimethylsphingosine]","ability of PEPITEM to inhibit T cell migration, SPHK1/2 inhibitor",SPHK1/2,abolished the ability of PEPITEM to inhibit T cell migration
"CCCCCCCCCCCCC/C=C/[C@@H](O)[C@@H](N)COP(=O)(O)O [S1P, Sphingosine-1-phosphate]",T cell migration on adding exogenous S1P,"[1]; S1P 0.0001 to 100 μM, 30 min, purified T cells / B cell depleted PBL, n=3–6",mimicked dose-dependently
same,T cell transmigration at total circulating S1P concentration,[1]; S1P ≈0.2 μM,inhibited T cell transmigration efficiently
same,surface S1PR1 in the presence of exogenous S1P,"[2]; CXCL10 80 ng/ml + S1P 10 μM, n=4",high expression was maintained
same,"affinity of LFA-1, binding to ICAM-1",αLβ2 (LFA-1),down-regulates the affinity
"CCCCCCCCCCCCCC#CC(=O)[C@@H]1COC(C)(C)N1C(=O)OC(C)(C)C [SPHK1 inhibitor, 2,2-dimethyl-4S-(1-oxo-2-hexadecyn-1-yl)-1,1-dimethylester-3-oxazolidinecarboxylic acid]","ability of PEPITEM to inhibit T cell migration, SPHK1 inhibitor",SPHK1,abolished the ability of PEPITEM to inhibit T cell migration
CCCCCCc1cccc(NC(=O)[C@H](N)CCP(=O)(O)O)c1 [W146],T cell migration in the presence of adiponectin and PEPITEM with S1P receptor antagonist,S1P receptor,released T cells from the inhibitory effects of both adiponectin and PEPITEM
CXCL10: chemokine,surface S1PR1 on memory T cells on ICAM-1,"[2]; CXCL10 80 ng/ml, n=6",rapid up-regulation of surface S1PR1
PEPITEM with a biotin conjugate on the N-terminus: PEPITEM with a biotin conjugate on the N-terminus (Biotin-SVTEQGAELSNEER),efficacy in functional migration assay,[3],full efficacy
"rituximab: monoclonal antibody, B cell depletion",clinical effect of B cell depletion,B cells,beneficial effects
Biotin-SVTEQGAELSNEER [N-terminus biotinylated PEPITEM (PEPtide Inhibitor of Trans-Endothelial Migration)],Kd,recombinant CDH15-Fc,109 µM
"adiponectin: circulating adipokine (protein, UniProt Q15848 19-244, looked up) Adiponectin: ETTTQGPGVLLPLPKGACTGWMAGIPGHPGHNGAPGRDGRDGTPGEKGEKGDPGLIGPKGDIGETGVPGAEGPRGFPGIQGRKGEPGEGAYVYRSAFSVGLETYVTIPNMPIRFTKIFYNQQNHYDGSTGKFHCNIPGLYYFAYHITVYMKDVKVSLFKKDKAMLFTYDQYQENNVDQASGSVLLHLEVGDQVWLQVYGEGERNGLYADNDNDSTFTGFLLYHDTN",PBL trans-endothelial migration,"[3]; TNF-α and IFN-γ stimulated HUVEC, static",dose-dependently inhibited
same,EC50 for inhibition of PBL trans-endothelial migration (mass concentration),"[3]; adiponectin, PBL pre-treated 1 h and washed, TNF-α and IFN-γ stimulated, static",0.94 µg/mL
same,PBL transmigration on HDMEC,HDMEC,evident
same,PBL transmigration under flow,[4],effects of adiponectin on PBL migration were seen
same,"T cell migration, individuals with T1D",[5],no longer an inhibition of T cell migration
same,firm adhesion of PBL (surface adherent cells),[6],more cells were firmly adherent to the apical surface of the endothelium
same,"expression and/or function of integrins (α4β1, αLβ2), CXCR3, DP-2 on PBL",[7],did not alter
same,gene expression of adhesion molecules and chemokines,[8],did not modulate
same,T cell migration with supernatants from adiponectin stimulated B cells,"[9]; B cells 100,000, adiponectin 15 μg/ml 1 h",as effective as addition of B cells themselves
same,T cell migration after depleting B cells from PBL,"[9]; adiponectin treated, n=3–7",T cells were released from the inhibitory effects of adiponectin
same,T cell migration after adding back purified B cells,"[9]; adiponectin, n=3–7",could reconstitute the adiponectin-dependent inhibition of T cell migration
same,"T cell migration, individuals with rheumatoid arthritis",[10],no longer an inhibition of T cell migration
